The numbers were not newly measured in article PMC7249735, which cites them from elsewhere.

The data set concerns RGNNV coat protein (RGNNV-CP), MBP fusion (red-spotted grouper nervous necrosis virus (RGNNV)). The settings on record: PBS (137 mM NaCl, 2.7 mM KCl, 10 mM Na2HPO4, 1.8 mM KH2PO4, pH 7.4); ELASA 30 min at 4 C after 3% BSA block; sandwich capture in PBS, temperature not stated.

By Kd is commonly meant a measure of binding affinity in units of concentration. Consider “TGTGTGTCTATTGTCTGTGGTTCATGTCAAGCTTATTTTCCACACACGGT [A10]”, for which the Kd was 4 nM.
